Assay results taken from the supplement of paper PMC12636428.

Test system: Saccharomyces cerevisiae
Test: transcriptional activation domain activity (GFP:mCherry ratio, weighted mean of sorted bins, harmonized to initial dataset scale) (arbitrary fluorescence ratio units); higher = stronger transcriptional activation
Conditions: beta-estradiol 1 µM; induction time 4 h
Description: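 53-aa protein tiles (fungal proteins plus yeast TF control tiles) fused C-terminally to a DBD-estrogen-binding domain-mCherry synthetic TF, integrated in S. cerevisiae (URA3 locus) with a GFP reporter. Cells were induced with 1 uM beta-estradiol for 4 h at 30 C, FACS-sorted into 8 bins by GFP:mCherry ratio and barcodes sequenced. Activity is the read-weighted mean bin fluorescence (GFP:mCherry), averaged over barcodes (median 12); tiles under 50 reads were discarded. New active-learning values were harmonized by linear fit onto the scale of the initial (Hummel et al.) dataset. The assay saturates at low and high signal.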

Sequence	transcriptional activation domain activity
LGNISAERHVLNTLSKIPAAQLHDALLVLPFSSLPALFTFLAIWVRKQWNVTL	56000
HVERGRDVTKGFVKCHTHMRTTCVGSIRFSHAASFAPSVCLGVGVKSLDRRPL	37300
MIVVVLCLPSALTHLGCLFYHDPSSPFALVTFSVSLIIILPNLGVILFGFFNI	48600
FFLKVYLLNPLHMTRFADLLYQGAILNHVFQPYESHLQYLLQWMCDYNLYGCA	70700
GLDCDKQHVRECPDFAERGTCATRGCKLPHVIRANRNRKAPAPAAQKSTSTST	25500
ARAAAQNDDGTPKKGRGRPRKAAAAAATSDEEPAATTPKEPKKRGRKPKAVEP	36000
GGETEGESPEAPVPGGETPSEGGETETPSEGGETEGESPETPVPGGETPSEGG	16800
RGLVLCLCLCITLKTAFHMIAVYQPLHPLFTSIDLGHLQPQPFCKLGMILGIM	65900
MLSRCFKCPYGAWGVIIFFIFFFYFFLNIPFFFVYYYLLFFVCSFFSFFFHFI	38600
VKHRVIHLLVVFVAFFFAVTPVYFDYLCCGSPLVLFSSTLGMIIHLILFFFCL	49000
FFLKVYLLNPLHMTRFADLLYQGAILNRVFQPYESHLQYLLQWMCDYNLYGCA	72900
RVEEEGKSGVPAGDRFCGISLRPGILTDGEAGGVKVGKIGTGGKTARATVAES	22900
MEVGSAAVAGPVLAAAHVPRKRRRPALSCEQCRKRKVKCDRTSPCGQCTRSKG	32100
KGRGGGKGRGGGKERGGGKGRGGEGEGEGEGEREGGGRGKERGREGEREGERG	21800
ESPSPDQEEEVEDRENDKPKANTAKKAKPAEGKKTGGRKKAALGGAAKKKAEK	43300
EASPQPSPQPESQPAPEASPQPEPQPSSKPSPQPESQPVPEASPQPEPQPSPQ	18200
DLDFRGIFMTDWYANYDYMVSDLIMPGFWRVPVLPKWYNWTGFFASWPLIGQF	68800
SFCVRHKFMWPLFRTRFIPCPVVSLIVLPTLFIVAYLPQVAFLAIFQGNLAWF	58000
MCLTGLWWFVCKFAFSFFLSAGLFFLIHPPLFLILLPLSSFFLFLSLAAASGF	31400
MCSIFLVFIVPPNPLSYLISFAFFFLFSFYLWCLLRRGLSYFALYAYLKYALL	43700
RRKRRRRGGEDEQQAEVEDNDRHRSSRHHRRRRRETSEEKSPRRRATDRRRHP	34600
MGSTIVFSVVFIWFFLVSFQQLLPFPKGTFFLLFLFPFSLSLPESSCIIFLAF	51800
ERDDSRSERNVDDGDRRRAGRRRRDSRSSDDEHTTSRRRGGKDHADREDSDRR	29100
MDSGGRLEVHLFFFLLLFVQMWFSWVYFLFSLVFLTLLTRDLGGLLLLVYSFC	34700
MCNVALSLAWFIFPPFLHGILPFSTCLLLVFFLSLSSSFFSLITHLLLHCYLF	34900
ENKKEEPKSAKPTSKKAEKPVSKKADAETGEKRAADETKPAEKPASKKAKTDA	30800
GKPVALRTSTRVKDVSGDGIVTLESGEQISADVVVGADGVHSRTRYAIPGSAG	52400

Sequence	transcriptional activation domain activity
MFPYSWFRLLFRLLFLWPFLLFQLLFPWPTTLLILWPFRLLILWPIRLLILWP	73200
LYSRYCLLLICIFFVTLQFTTVRFTVRSFYFNTLSFFYLSFWCPQIYRNIMRN	53600
MCTLKLLVLLRIYFPTYISFPFFSPSLLSKCHSFISFSYVPWSLVTFLIYLPS	75600
VNDAARILLAGLLEIKYTIREHLKSMFGSPWIIMYWRNWSGPLNITLELLGKC	45200
MELSFFSVSSDGDLFFLLLFLIRGVLEKYFFDWYFDLPLWVFVCFFLFVFLTL	54600
PSEKPANGAKGKGGKPRGKSGEKDNGAAEFGADPKNADKKSSNESSGAKSRPK	37900
YFLLSILFFFFSNNFTFTLLYLLHASYHIQSLYRHILVSVFCNYPSLLLFFFL	53000
MYVWYSLSFLFPPTSPSLFLFLFYLFIYSLFYFFFYFSPYFFSFFLSSYTLHY	63000
KEVMDQIHAIWCILLYLYYGTLETDHVFRFCFAPNVSRPLSELEQRFFNERHG	48000
FHAWVSHIVQLNLFGLLSQTLMLIMFKLDVGTYFFLNDVILCKVYVFSLFVTL	65400
NFFLKDNAPVLQEYLAVFRHLLSFHDPELSSHLDTIGFMPDLYAIPWFLTLFT	16300
MFLVLGWMFAHFVTVSCWPLLLWHVFFWCCLTGASEAELFIPPFIFRLPILSS	74400
EGEGAADPAAGAGAGAEEDGEEEEDEGAADPAAGAGAGDEEGEGAAEEGAAES	17600
IHLFISSFPLLFICSLPYAFLSFFPHLFISYFLSSFYSLSTHLFHSFFPFLVI	59400
QEDDPMPYLSWTPTVGRNSAFVDLTEEQREELGGIEYRSLKLLLIILVCYYVG	48300
GLWLVLLCDAARFPDVVDLVKRKGSRFPASGDLASNESWYLSLWAIKAHILQR	64800
ILLRRAWTVNAEMLLHKFDPRLFPLYFRILYPTWDTCSIPAPSRLVGAAKQWL	46700
EAANGDDAEPAAEQNGADIQTAAASPAESTKKDNKKKDKKRSREEEGANGAAA	39500
VPLMQFILFPPFDWLVLVASPHNPILTSEFYNHLWSLIKLITLCLPLPLFGTL	61500
AYTATNVGIPFNRAMDHLHRMMSRFEYCIFEGTSLPVFGIIGLQVRCQWLGCS	73700
HKEASDKENTGSGQAQKNNKVKANTGARVKDEQEAKKKVGRPKKGTEAGTGAG	39500
MTQLYPFFLLFFAGLTMLLLLNHTFLPRVSVKSVKSLFRCNVRGFGTFFLFFL	43800
ALDDKGNRDAFYSVLVNLMSKLCWAIVQYLESNSLRATYVIEARISEYTKFSI	42500
AVLEFYEQSTRLVASDALGRHVRIELPPRLLVYVVFFSPSVAVVSRLCSLLAC	35600
KSNGTEGAGAEGSKGGEGSTGEGSKGEGSSGEGAKGGEGSKGEGAGAEGSKGG	36300
PNDDFLLDCEEWGLNQLFGDEQFSNNINDLSDDLLALIPDWSFIPPSEDPWGL	147000
FFEVGGVPRFQETVIAGGDNSVGRALSSPTVIYSGKHDGIALTIIRLLRPIWL	53400

Sequence	transcriptional activation domain activity
YSNSISNSNSNSTGNLNSSYFNSLNIDSMLDDYVSSDLLLNDDDDDTNLSRRR	88700
KSDVEADRQRLIYSGKVLKDDDILSSCKIQSGHTVHMVKGAARAAAASSSSAP	58300
AFIHRLHEVYIVAWCMKNVHFMYLHPGVPFYVLCDCTRGDTIMTVHACAEPPP	63000
ENHPPGVAAQILIARISWILWHSVEQIRITVWVVGRKFMMVLLQGTVPRISVR	71600
MGIRYHWLVFFCPFFSFTFASCFVLFVGMLFCFIILDYGCFSFLPLWFFFCPE	18700
MVFPSKSLFYLVGPCLSFFFVPPTWYDVFHLLFSPMTLDYYPFVLWYSPFLST	39300
LYLLIFFPVLLWRYLCIGLDSVLCCHIGFHFPYFMCYFFAIMSVSRSFFIHVY	67200
KAETTAAKDAGAEPEAKPMRGGGREKKRDAEEAVKKEAVKEKPSKGSTKPASK	< 6570
MSLFSPSPSLSLYNFKIRFCILLVPLILAFLFLIILISYCLSLFICFSSSLWF	54700
SQQRLEVSAMYLFWHMDTVRGLCVRMPGTVMTRAHFFRLLTYYFAMLFLSAAL	57000
LLGVGYAMVLAWFMCLFYLFPFLGALTLYFVMDVVDLASRTLYKLLHTLPILV	52500
LRQRILYIYKWFLRKIYPSINAAYYLSILSFSLMYLFDNTKYSNPFLWLIHTR	63900
TVWLILNDQTLGYALGSFLCENSLLLSQRINEFFDTVLVAWMQWVLRWLDSWP	40400
YQWVNYDLDTICMNFWTLKFLPDELPPIKHFSVVANDCKLFMYNVMGIIRFMS	82700
EAWILHMVVILGVNYLFTFYVWDFSYTDTELWNVTCYWKLGWLLPIPYTLICF	51000
KQYCVRPNSGRIEPGKEVEVQVILQAMKQEPPPDTKCRDKFLVQAVAIAADKE	29700
KEESGAKTPQSPASKSADDKNATREKEGAGSPDAAKGKGNEEVQTESGRDDRK	28400
HFSLLWPPHCSLWCTLFFLLIGHFVFILCLCYSVFFSFPSFLLIVSCFLLCFP	37800
TTAETTAPAAETDAAAKVEEAKPAAATTEAKPAAAAPKPAADKKVKRSSTILQ	10600
MTEREPDNEQQPRKRIAVACGRCRKRKIRCSGDPGNGEPCTNCRNANAEPCQF	38700
MCLLGDGRHPEFFIFYFLYHFFLLYLLFYPQAFSRYLFIWMGCLNCFYFRFGL	41000
TFLANILPITFYFYFYLHFLFLFFFFLFSLSAFLFFLFLYFYFLFSPLFLPFI	63700
EKKVKTPKSPKKEKKKEEPAAAPAAAAEEPAKEEAAAPAEAAVAPTEEPAKVE	42200
AKLALILVLFEVYVKWFKLEKLYGRSDFLLVESLHYQYFCILCLCVVEFVIWH	45300
AVGRGEFAQPVLVPGGGVAIVAIGRARWIRDEEKNGERRYRVGVSWSADHRVV	40100
